This assay concerns the target HLA-A*02:01 (Homo sapiens, UniProt P04439, D140Y/D185E/D98H/E176V/E277Q/G131W/G231S/I119V/I121R/I166T/I218V/L300P/L318F/N151K/N90K/P208A/P217A/Q86G/Q94H/R138H/R169H/T345S). Description: MHC binding assay: UV-ligand exchange with β2m ELISA (peptide exchange yield). The following applies: MHC class I binding score; binding to HLA-A*02:01 ranged by peptide exchange yield (UV-ligand exchange, β2m ELISA). The text has this: Candidate peptides for T cell based therapies according to the present invention were further tested for their MHC binding capacity (affinity). The individual peptide-MHC complexes were produced by UV-ligand exchange, where a UV-sensitive peptide is cleaved upon UV-irradiation, and exchanged with the peptide of interest as analyzed. Only peptide candidates that can effectively bind and stabilize the peptide-receptive MHC molecules prevent dissociation of the MHC complexes. To determine the yield of the exchange reaction, an ELISA was performed based on the detection of the light chain (β2m) of stabilized MHC complexes. The assay was performed as generally described in Rodenko et al. (Rodenko et al., 2006).
96 well MAXISorp plates (NUNC) were coated over night with 2 ug/ml streptavidin in PBS at room temperature, washed 4× and blocked for 1 h at 37° C. in 2% BSA containing blocking buffer. Refolded HLA-A*02:01/MLA-001 monomers served as standards, covering the range of 15-500 ng/ml. Peptide-MHC monomers of the UV-exchange reaction were diluted 100 fold in blocking buffer. Samples were incubated for 1 h at 37° C., washed four times, incubated with 2 ug/ml HRP conjugated anti-β2m for 1 h at 37° C., washed again and detected with TMB solution that is stopped with […]. Absorption was measured at 450 nm. Candidate peptides that show a high exchange yield (preferably higher than 50%, most preferred higher than 75%) are generally preferred for a generation and production of antibodies or fragments thereof, and/or T cell receptors or fragments thereof, as they show sufficient avidity to the MHC molecules and prevent dissociation of the MHC complexes.

“104 (KLILLDTPLFL; listed as Homo sapiens) [compound 104]”: the “Peptide Exchange” value was “″+++″ (≥50 = +++)”.

Consider “105 (KLMNDIADI; listed as Homo sapiens) [compound 105]”, for which the “Peptide Exchange” value is listed as “″++″ (≥20% = ++)”.

Take “106 (FMASHLDYL; listed as Homo sapiens) [compound 106]”: the “Peptide Exchange” value is “″+++″ (≥50 = +++)”.

Take “107 (ILYNLYDLL; listed as Homo sapiens) [compound 107]”: the “Peptide Exchange” value is “″+++″ (≥50 = +++)”.

Turning to “108 (VIYTLIHYI; listed as Homo sapiens) [compound 108]”, the “Peptide Exchange” value was “″+++″ (≥50 = +++)”.

For “109 (KLWEGLTELV; listed as Homo sapiens) [compound 109]”, the “Peptide Exchange” value is “″+++″ (≥50 = +++)”.

Take “110 (LLFDHLEPMEL; listed as Homo sapiens) [compound 110]”: the “Peptide Exchange” value was “″+++″ (≥50 = +++)”.

Turning to “111 (KLWNVAAPLYL; listed as Homo sapiens) [compound 111]”, the “Peptide Exchange” value is on record as “″+++″ (≥50 = +++)”.

For the substance “113 (KVPAEEVLVAV; listed as Homo sapiens) [compound 113]”, the “Peptide Exchange” value was “″+++″ (≥50 = +++)”.

Regarding “115 (LLFDKLYLL; listed as Homo sapiens) [compound 115]”, the “Peptide Exchange” value was “″+++″ (≥50 = +++)”.

For “116 (LLIGATMQV; listed as Homo sapiens) [compound 116]”, the “Peptide Exchange” value is on record as “″+++″ (≥50 = +++)”.

For “117 (LLILENILL; listed as Homo sapiens) [compound 117]”, the “Peptide Exchange” value is listed as “″+++″ (≥50 = +++)”.

Take “118 (RLLILENILL; listed as Homo sapiens) [compound 118]”: the “Peptide Exchange” value is “″+++″ (≥50 = +++)”.

For the substance “119 (VLPAEFFEV; listed as Homo sapiens) [compound 119]”, the “Peptide Exchange” value was “″+++″ (≥50 = +++)”.

Consider “120 (AIDAALTSV; listed as Homo sapiens) [compound 120]”, for which the “Peptide Exchange” value was “″+++″ (≥50 = +++)”.

For “121 (RLYEITIEV; listed as Homo sapiens) [compound 121]”, the “Peptide Exchange” value was “″++++″ (≥75% = ++++)”.

For “122 (LLIPVVPGV; listed as Homo sapiens) [compound 122]”, the “Peptide Exchange” value is recorded as “″+++″ (≥50 = +++)”.

Take “123 (LLLAEAELLTL; listed as Homo sapiens) [compound 123]”: the “Peptide Exchange” value was “″++″ (≥20% = ++)”.

Consider “124 (LLLEETEKQAV; listed as Homo sapiens) [compound 124]”, for which the “Peptide Exchange” value was “″+++″ (≥50 = +++)”.

As to “125 (LLLEIGEVGKLFV; listed as Homo sapiens) [compound 125]”, the “Peptide Exchange” value was “″+++″ (≥50 = +++)”.

“126 (LLPEGGITAI; listed as Homo sapiens) [compound 126]”: the “Peptide Exchange” value is on record as “″+++″ (≥50 = +++)”.

For “127 (LLPTAPTTV; listed as Homo sapiens) [compound 127]”, the “Peptide Exchange” value is “″+++″ (≥50 = +++)”.

For the substance “128 (LLSEEEYHL; listed as Homo sapiens) [compound 128]”, the “Peptide Exchange” value was “″+++″ (≥50 = +++)”.

With “130 (LLVLIPVYL; listed as Homo sapiens) [compound 130]”, the “Peptide Exchange” value is given as “″+″ (≥10% = +)”.

For “131 (LQALEVLKI; listed as Homo sapiens) [compound 131]”, the “Peptide Exchange” value was “″+″ (≥10% = +)”.

Turning to “132 (LVYEAIIMV; listed as Homo sapiens) [compound 132]”, the “Peptide Exchange” value is on record as “″+++″ (≥50 = +++)”.

Consider “133 (YLLSGDISEA; listed as Homo sapiens) [compound 133]”, for which the “Peptide Exchange” value is “″+++″ (≥50 = +++)”.

As to “134 (MLLEHGITLV; listed as Homo sapiens) [compound 134]”, the “Peptide Exchange” value was “″++++″ (≥75% = ++++)”.

For “135 (MTAGFSTIAGSV; listed as Homo sapiens) [compound 135]”, the “Peptide Exchange” value is given as “″+″ (≥10% = +)”.

“136 (NLDKLWTLV; listed as Homo sapiens) [compound 136]”: the “Peptide Exchange” value is listed as “″++″ (≥20% = ++)”.

For “137 (NLIKTVIKL; listed as Homo sapiens) [compound 137]”, the “Peptide Exchange” value is “″+++″ (≥50 = +++)”.

As to “138 (NLLDIDAPVTV; listed as Homo sapiens) [compound 138]”, the “Peptide Exchange” value is “″+++″ (≥50 = +++)”.

As for “139 (NLTDVVEKL; listed as Homo sapiens) [compound 139]”, the “Peptide Exchange” value is listed as “″+++″ (≥50 = +++)”.

“140 (QIAELPATSV; listed as Homo sapiens) [compound 140]”: the “Peptide Exchange” value is listed as “″+++″ (≥50 = +++)”.

As to “141 (QILSEIVEA; listed as Homo sapiens) [compound 141]”, the “Peptide Exchange” value is on record as “″++″ (≥20% = ++)”.

Turning to “142 (QLDEPAPQV; listed as Homo sapiens) [compound 142]”, the “Peptide Exchange” value is recorded as “″++″ (≥20% = ++)”.

In the case of “143 (QLLDTYFTL; listed as Homo sapiens) [compound 143]”, the “Peptide Exchange” value is “″+++″ (≥50 = +++)”.

Turning to “145 (SALDTITTV; listed as Homo sapiens) [compound 145]”, the “Peptide Exchange” value is given as “″+++″ (≥50 = +++)”.

As for “146 (SIIEGPIIKL; listed as Homo sapiens) [compound 146]”, the “Peptide Exchange” value is listed as “″+++″ (≥50 = +++)”.

On to “147 (SILETVATL; listed as Homo sapiens) [compound 147]”, for which the “Peptide Exchange” value is reported as “″+++″ (≥50 = +++)”.

Take “148 (SIVASLITV; listed as Homo sapiens) [compound 148]”: the “Peptide Exchange” value is “″+++″ (≥50 = +++)”.

For “149 (SLDNGGYYI; listed as Homo sapiens) [compound 149]”, the “Peptide Exchange” value was “″+++″ (≥50 = +++)”.

For the substance “150 (SLFDQPLSII; listed as Homo sapiens) [compound 150]”, the “Peptide Exchange” value is listed as “″+++″ (≥50 = +++)”.

In the case of “151 (SLFDSAYGA; listed as Homo sapiens) [compound 151]”, the “Peptide Exchange” value is on record as “″+++″ (≥50 = +++)”.

On to “152 (SLIRILQTI; listed as Homo sapiens) [compound 152]”, for which the “Peptide Exchange” value is on record as “″+++″ (≥50 = +++)”.

With “153 (SLLAELHVL; listed as Homo sapiens) [compound 153]”, the “Peptide Exchange” value is “″+++″ (≥50 = +++)”.

Consider “155 (SLMLEVPAL; listed as Homo sapiens) [compound 155]”, for which the “Peptide Exchange” value is given as “″+++″ (≥50 = +++)”.

With “156 (SLNIGDVQL; listed as Homo sapiens) [compound 156]”, the “Peptide Exchange” value was “″+++″ (≥50 = +++)”.

In the case of “157 (SLNIRDFTM; listed as Homo sapiens) [compound 157]”, the “Peptide Exchange” value is listed as “″+++″ (≥50 = +++)”.

Consider “158 (SLPEAPLDV; listed as Homo sapiens) [compound 158]”, for which the “Peptide Exchange” value is given as “″+++″ (≥50 = +++)”.

On to “159 (SLQEEKLIYV; listed as Homo sapiens) [compound 159]”, for which the “Peptide Exchange” value is given as “″+++″ (≥50 = +++)”.

Take “160 (SLSFLVPSL; listed as Homo sapiens) [compound 160]”: the “Peptide Exchange” value is recorded as “″+++″ (≥50 = +++)”.

In the case of “161 (SMDDGMINV; listed as Homo sapiens) [compound 161]”, the “Peptide Exchange” value was “″+++″ (≥50 = +++)”.

For “162 (SMKDDLENV; listed as Homo sapiens) [compound 162]”, the “Peptide Exchange” value is on record as “″++″ (≥20% = ++)”.

For the substance “163 (SQLDISEPYKV; listed as Homo sapiens) [compound 163]”, the “Peptide Exchange” value is recorded as “″+++″ (≥50 = +++)”.

As for “164 (SVHKGFAFV; listed as Homo sapiens) [compound 164]”, the “Peptide Exchange” value is recorded as “″+++″ (≥50 = +++)”.

Consider “165 (TLDDDLDTV; listed as Homo sapiens) [compound 165]”, for which the “Peptide Exchange” value is on record as “″++″ (≥20% = ++)”.

Consider “166 (TLDPNQVSL; listed as Homo sapiens) [compound 166]”, for which the “Peptide Exchange” value is on record as “″++″ (≥20% = ++)”.

“167 (TLDTSKLYV; listed as Homo sapiens) [compound 167]”: the “Peptide Exchange” value is on record as “″+++″ (≥50 = +++)”.

In the case of “168 (YLLDQSFVM; listed as Homo sapiens) [compound 168]”, the “Peptide Exchange” value is reported as “″++++″ (≥75% = ++++)”.

For “169 (TLLLGLTEV; listed as Homo sapiens) [compound 169]”, the “Peptide Exchange” value is recorded as “″+++″ (≥50 = +++)”.

For “170 (TLTFRVETV; listed as Homo sapiens) [compound 170]”, the “Peptide Exchange” value was “″+++″ (≥50 = +++)”.

As for “171 (TLVPPAALISI; listed as Homo sapiens) [compound 171]”, the “Peptide Exchange” value is “″+++″ (≥50 = +++)”.

On to “172 (TLYDMLASI; listed as Homo sapiens) [compound 172]”, for which the “Peptide Exchange” value is listed as “″+++″ (≥50 = +++)”.
